“Also recorded” adds a separate entry of the source.
Columns and labels:
[1] = tested on: keratinocytes and dermal fibroblasts; experiment: In vitro scratch wound-healing assay; type: cell-based, human and mouse
Protocol: A confluent monolayer of control and Agrin depleted cells in a 6-well plate was subjected to a unidirectional scratch using a 20 μl pipette tip. This was followed by washing with 1×PBS at room temperature and incubation in complete culture media at 37° C. and 5% CO2 with or without sAgrin used as indicated. Phase contrast images of the wound area were taken periodically at the indicated time-points. For some wound-healing migration assays, keratinocytes were cultured on either soft or stiff substrates within a stencil barrier (Nalge Nunc., Inc) for 18 h. Upon removal of the barrier, the cells were allowed to migrate and imaged using an Axiovert 200 inverted microscope at indicated time-points.

MMP12 = MMP12 levels in HaCaT cells (Western blot / immunostaining); type: cell-based, human
Protocol: (§1) Tissue culture plates were coated with Col-T-gel (Fischer Scientific) of stiffness ranging from 0.8 KPa (soft) to 30 KPa (stiff) as per manufacturer recommendations and allowed to solidify for 40 min at 37° C. inside tissue culture incubators. Some experiments were performed with cells seeded on the poly-hydrogel plates of defined stiffness: 0.2 kPa and 16 kPa soft and hard polyhydrogels, respectively (CytoSoft, Advanced Biomatrix, Inc.,). The determination of stiffness of silicone substrates were done by the manufacturer as per previously published protocols. For certain experiments, indicated amounts of sAgrin was incorporated into the 0.8 KPa collagen gels before gelation process. Upon gelation, trypsinized cells or excised mouse skin explants were plated onto the gels of different stiffness either alone or containing sAgrin. The cells/tissues were incubated under standard culture condition with 500 μl recommended culture medium for the indicated days. The crossbow shaped micropatterns with fibronectin coated islands were generated by microlithography on a 19.5×19.5 mm coverslide from Cytoo, Inc., France. The micropatterns had surface areas of 800μ^2 or 1600μ^2, respectively. Fifty thousand cells after initial siRNA treatment was placed on the micropatterns for 4-6 h before processing them for immunofluorescence. For some experiments, 10 μg/ml sAgrin was added on the slides 18 h prior to the addition of cells.
Indicated cells post-manipulation were washed twice with cold Phosphate buffered saline (PBS) and lysed with cold 1% NP-40 lysis buffer supplemented with 1× protease inhibitor cocktail (Roche Applied Biosciences) for 15 mins at 4° C. The cell lysate was centrifuged at 13,000 rpm for 15 min. This was followed by protein estimation using Bradford reagent. Subsequently, […] of total protein was mixed with an equal volume of 2× Laemmli sample buffer and heated at 95° C. for 5 mins. This was followed by resolution with SDS-PAGE gel. The resolved proteins were transferred onto nitrocellulose membrane and blocked in 5% skimmed milk reconstituted in 1×PBS containing 0.1% Tween-20, and probed overnight with the respective primary antibody. The membrane was then washed with 1×PBS supplemented with 0.1% Tween-20: three times at 15 min intervals. This was followed by 1 h incubation in conjugated horseradish peroxidase HRP secondary antibody (Santa Cruz Biotechnology). […] The density of the various bands was quantified using the Image-J software.
Cells were cultured on eight-well chamber slides or coverslips over-night. […] The images were processed and analyzed by Zen blue software. […]

[2] = tested on: primary mouse keratinocytes over dermal fibroblasts; experiment: 3D-stiffness dependent keratinocyte fibroblast co-culture migration assay; type: cell-based; details: 10 μg/ml sAgrin
Text: A 3D in-vitro wound healing model was created using collagen constructs of defined stiffness modifying a previously published protocol. Collagen constructs were made with Col-T-gel (0.8 KPa-soft) or (30 KPa-stiff) as per manufacturer's recommended protocol containing 300,000 primary mouse dermal fibroblasts (DFs). For some experiments, siControl and siAgrin treated DFs were incorporated within soft or stiff collagen constructs. The constructs bearing fibroblasts were allowed to solidify for 45 min inside incubator. A second layer of collagen matching the stiffness of the underneath layer was added containing 350,000 of primary mouse keratinocytes (KRTs) and the construct was allowed to solidify for 3-4 h. After removing excess media, the constructs were washed gently with 1×PBS twice. An upside down 2μ pipette tip was inserted and gently rotated at the center of the constructs to create a circular wound. The collagen and cells was quickly removed from the wound area and replaced with 40 μl of soft or stiff Col-T-gel matching the consistency and set-up of the constructs. The resultant wounded constructs were placed inside the incubator and imaged after 30 min for day 0 time-points. The migratory keratinocytes were imaged till day 5 post-wounding.

HEK cells = experiment: Crossbow fibronectin micropatterns (geometric constraint); type: cell-based, human
Protocol: as §1, with “For some experiments, 10 μg/ml sAgrin was added on the slides 18 h prior to the addition of cells.” left out

B1: sAgrin: C-terminus recombinant Agrin fragment containing 8 amino acid 'Z8' insert and LG3 domain (SEQ ID NO: 7), His-tagged, expressed in E. coli (protein)
chain: DTLAFDGRTFVEYLNAVTESELANEIPVEKALQSNHFELSLRTEATQGLVLWSGKATERADYVALAIVDGHLQLSYNLGSQPVVLRSTVPVNTNRWLRVVAHREQREGSLQVGNEAPVTGSSPLGATQLDTDGALWLGGLPELPVGPALPKAYGTGFVGCLRDVVVGRHPLHLLEDAVTKPELRPCPTP
modifications: His tag
- scratch wound-responsive migration velocities (rescue of Agrin knockdown) ([1]; Agrin knockdown fibroblasts and keratinocytes, 10 μg/ml sAgrin 18 h): in part, rescued
- migration of MMP 1 and 10 knockdown keratinocytes ([1]; HaCaT, 10 μg/ml sAgrin 18 h): not restored by sAgrin treatment
- migratory rates with increasing concentrations of sAgrin ([1]; HaCaT/mouse keratinocytes): accelerated migratory rates
- migration of MMP12 depleted keratinocytes ([1]; human and mouse keratinocytes, 10 μg/ml sAgrin 18 h): failed to stimulate migration
- K17 expressing leader keratinocyte migration in vitro ([1]; sAgrin 10 μg/ml, 4 h): enhanced the K17 expressing leader keratinocyte migration
- MMP12 levels on soft matrix, exposure time series (MMP12; 10 μg/ml sAgrin): increased MMP12 levels
- MMP12 protein levels on soft substrates, concentration series (MMP12; 0.8 kPa, increasing sAgrin, 18 h): strongly stabilized MMP12 protein levels in a dose-dependent fashion
- MMP12 and Agrin at the leading migrating front (MMP12; 6 h post-wound scratch, sAgrin 10 μg/ml): further heightened
- MMP12 levels in Agrin knockdown cells on stiff ECM (MMP12; increasing sAgrin, 18 h, dose-dependent): restored their MMP12 levels
- keratinocyte migration in soft matrix ([2]; 0.8 KPa, day 5): strongly enhanced keratinocyte migration; also recorded: stimulated mouse keratinocyte migration over dermal fibroblasts
- keratinocyte migration in stiff matrix, Agrin depleted KRTs and DFs ([2]; 30 KPa): strongly restored keratinocyte migration
- keratinocyte migration, MMP12 depleted KRTs and DFs ([2]; soft matrix 0.8 KPa): not even rescued by sAgrin supplemented compliant matrices
- F-actin stress fibers and pMLC in small crossbow patterns (HEK cells; 800μ^2 patterns, 20 μg/ml sAgrin): partially rescued F-actin stress fibers and higher pMLC recruitment to the transverse arc
- stress fiber formation in large crossbow patterns (HEK cells; 1600μ^2 patterns): further accentuated
- tension curvatures at transverse arcs (HEK cells; large crossbow patterns): significantly higher tension curvatures
- F-actin stress fibers and pMLC in MMP12 knockdown cells (HEK cells; large crossbow patterns, sAgrin nourishment): did not exhibit F-actin stress fibers and pMLC enrichment in the transverse arcs
- tension signature in Agrin depleted cells (HEK cells; sAgrin in FN crossbow matrix, large patterns): restored the tension signature of F-actin stress fiber network and pMLC enriched transverse arcs
